Laboratory results as given in patent US20190264194A1 (published 2019).
Positions of bridges follow the written chain, without caps; N, C: chain ends. No end group written: not given here.

Key:
[1] = target: T1, streptavidin (UniProt P22629 37-163, limits assumed); experiment: apparent whole-cell KD, flow cytometry with streptavidin-phycoerythrin
T1 construct: Used as phycoerythrin conjugate or on coated beads; also called SA; streptavidin-phycoerythrin
Method: (§1) To obtain equilibrium binding curves, cells were labeled over a range of concentrations, e.g., about 0.1 to about 200 nM, of fluorescently conjugated target proteins (streptavidin-phycoerythrin or CRP-Alexa Fluor® 488) and analyzed by flow cytometry, as above. The corresponding mean fluorescence versus concentration data were fit to a monovalent binding isotherm to obtain the apparent KD. Dissociation rates of streptavidin-binding clones were measured in the presence of about 1 to about 2 μM biotin. Cells were labeled with 50 nM streptavidin-phycoerythrin for 30 minutes at room temperature. The cells were then pelleted, resuspended in PBS with biotin, and immediately analyzed by flow cytometry. Fluorescence data were collected continuously for about five minutes. The dissociation rate constants were then determined as described previously. See Daugherty, P. S., et al. (1998) Protein Eng. 11(9):825-832, which is herein incorporated by reference.

[2] = target: T1, streptavidin; experiment: whole-cell dissociation by flow cytometry with biotin as competitor
Method: (§2) To enable comparison of the phage and bacterial display peptides, a bacterial display clone was constructed with the insertion, […] (SEQ ID NO:65), and the KD and kdiss were measured in whole cell assays.
as §1

[3] = target: T1, streptavidin; experiment: equilibrium dissociation constant of a selected displayed peptide, whole-cell flow cytometry
Method: as §1

[4] = target: T1, streptavidin; experiment: whole-cell dissociation by flow cytometry, 1-2 uM biotin as competitor
Method: The apparent binding affinities of a subset of the selected peptides were determined using flow cytometric analysis. […] See Daugherty, P. S., et al. (1998) Protein Eng. 11(9):825-832, which is herein incorporated by reference. […] See Daugherty, P. S., et al. (1998) Protein Eng. 11(9):825-832; and Feldhaus, M. J., et al. (2003) Nat. Biotechnol. 21(2): 163-170, which are herein incorporated by reference. […] Apparent dissociation rate constants (kdiss) were determined for streptavidin, using about 1 to about 2 μM biotin as a competitor to prevent re-binding.
as §1

[5] = target: T1, streptavidin; experiment: selection from the E. coli OmpA display library
[6] = target: T1, streptavidin; experiment: whole-cell dissociation by flow cytometry (FIG. 10B), SA-7 against SA-1
Method: as §1

[7] = target: T1, streptavidin; experiment: apparent whole-cell KD, flow cytometry with streptavidin-phycoerythrin; remark: listed apart in the source
Method: as §2, §1

Binder: TVLICMNICWTGETQ (Insert only) [SA-3]
- Kd [1]: 4 nM
- koff [2]: 0.0007 s⁻¹
- Kd [3]: 4 nM
- koff [4]: ~0.001 s⁻¹

Binder: QVKLHPMAPVVPSHW [SEQ ID NO 243]
- binding result [5]: binds

Binder: NEWYCQNVCERMPHS (Insert only) [SA-7]
- koff [4]: ~0.01 s⁻¹
- fold difference of dissociation rate constant against SA-1 [6]: 4 fold

B1: Clone HPQ (peptide)
peptide: SAECHPQGPPCIEGR
modifications: disulfide 4-11 (inferred)
notes: Insert only; also called cyclic HPQ clone
- fold faster dissociation rate (kdiss) against clone SA-1 [2]: 20 fold
- fold higher apparent KD against clone SA-1 [7]: 5 fold
